Measured values: US20230242902A1, “A HIGHLY ERROR-PRONE […] R[…] FOR TARGETED CONTINUOUS EVOLUTION IN VIVO” (The Regents of the University of California, priority 2017, published 2023)
Substitutions are numbered along the chain they refer to. Names may count otherwise.

B1: Y653L, I777K (protein)
chain: MDYKDKALNDLRNVYADFDSLPLDFRQILIKDRATLLQKEDVEKKILERQEDAKKYAEYLKQSEIPERISLPNIKRHKGVSISFEETSEDMVLEPRPFIFDGLNIRCFRRETIFSLKNKILNMVKESSSFKNVSRQSVSFMYFKIFNKGKVIASTKSVNIYEDKIDERLEDLCNNFDDVLKKIIDVTYGYESLFVSETYSYVIFYAKSIYFPQPRCVNNWGNNIPNILTFDSFKLFTANKNNVSCIKQCSRFLWQKDFNTLEEMIEYKNGNICIVTPQLHINDVRDIKSFNDIRLYSESPIKTFSVIDNTITYLFYFKEHLGVIFNITKSRHDRRVTKFSPLSKFSDVKNITVCFDIESYFDPEKESNQVNIPFICCASIIYNKVIGNIVDFEGRDCVAQMIEYVVDICGELNISSVELIAHNGGGYDFHYILSSMYNPAAIKNILIRNNSFISFNFAHDGVKFSVKDSYSFLLCSLANASKAFLNEETFKKTDFPHHDLKTADDLYKVYKEWSSVNTEINHVVEKEKLLITSEHIVNFTKNDKSKTLIEWSKDYCRNDVLVLSKVWLEFKNAVEDIFNCELVDQTMTLAGLSYKLFQANMPFDVELRHPNKEDYFNMREALIGGRCISVNGIYKDVLCLDVKSLYPASMAFLDQPYGSFKRVSSRPKDELGIYYVRVTPNRNNKSNFFPIRSHNKITYNNFEESTYIAWYTNVDIDIGLSEGHNIEYIPFDSYGNIGYSWSKKGKIFEKYIKDVLYKLKIKYEKQNNKVKRNVIKKIMNSLWGKFAQKWVNFEYFIKSEDDIDFESEEAYKIWDTDFMLIKKIKESTYSSKPIQNGVFTLSWARYHMKSIWDAGAKEGAECIYSDTDSIFVHKEHFKKNAKFMLNGLKVPIIGSEVGQLELECEFDKLLCAGKKQYMGFYTYFQDGKPCIKEKKRFKGIPSNYIIPELYAHLLSGADKEAKIQFLKFRREWGSVKGYIENKTVKAT
B2: I775A, F871Y (protein)
chain: B1 chain with L653Y, I775A, K777I, F871Y
B3: I775A, L900S (protein)
chain: B1 chain with L653Y, I775A, K777I, L900S
B4: I775A, L909F (protein)
chain: B1 chain with L653Y, I775A, K777I, L909F
B5: I775A, K934W (protein)
chain: B1 chain with L653Y, I775A, K777I, K934W
B6: I775A, F968T (protein)
chain: B1 chain with L653Y, I775A, K777I, F968T
B7: I777A, F871Y (protein)
chain: B1 chain with L653Y, K777A, F871Y
B8: I777A, V872I (protein)
chain: B1 chain with L653Y, K777A, V872I
B9: I777A, L900S (protein)
chain: B1 chain with L653Y, K777A, L900S
B10: I777A, L909F (protein)
chain: B1 chain with L653Y, K777A, L909F
B11: I777A, K934W (protein)
chain: B1 chain with L653Y, K777A, K934W
B12: I777K, W790L, K934W (protein)
chain: B1 chain with L653Y, W790L, K934W
B13: I777K, F871Y (protein)
chain: B1 chain with L653Y, F871Y
B14: I777K, V872I (protein)
chain: B1 chain with L653Y, V872I
B15: I777K, L909F (protein)
chain: B1 chain with L653Y, L909F
B16: I777K, K934W (protein)
chain: B1 chain with L653Y, K934W
B17: I777K, F968C (protein)
chain: B1 chain with L653Y, F968C
B18: I777K, F968T (protein)
chain: B1 chain with L653Y, F968T
B19: M779L, K934W (protein)
chain: B1 chain with L653Y, K777I, M779L, K934W
B20: M779L, F968C (protein)
chain: B1 chain with L653Y, K777I, M779L, F968C
B21: V774I, F871Y (protein)
chain: B1 chain with L653Y, V774I, K777I, F871Y
B22: V774I, L900S (protein)
chain: B1 chain with L653Y, V774I, K777I, L900S
B23: V774I, F968C (protein)
chain: B1 chain with L653Y, V774I, K777I, F968C

System: p1-encoded leu2 (Q180*)
Assay: Large-scale p1 fluctuation tests of p1-encoded leu2 (Q180*), per-base substitution rate
Format: cell-based, S. cerevisiae
Conditions: per-base substitution rate, p1-encoded leu2 (Q180*), large-scale fluctuation test
Excerpt: All three TP-DNAP1 libraries were screened through small scale p1 fluctuation tests in a metastable S. cerevisiae strain, OR-Y24. OR-Y24 contains w.t. p1 and recombinant p1 that lacks w.t. TP-DNAP1, and instead, encodes a standardized fluorescence reporter of p1 copy number (Table 1), and a disabled version of the LEU2 selection marker (leu2 (Q180*)). As described previously (Ravikumar et al., 2014), leu2 (Q180*) contains a C→T mutation at base 538 in LEU2 at a site permissive to all single point mutants that generate missense mutations. Reversion to functional LEU2 can be detected on medium lacking leucine.
Large-scale fluctuation tests of p1-encoded leu2 (Q180*) were performed to precisely determine per-base substitution rates for individually cloned or isolated TP-DNAP1 variants. Large-scale p1 fluctuation tests are performed similarly to small-scale p1 fluctuation tests, with several modifications. First, large-scale p1 fluctuation tests were typically performed with 36-48 replicates. For highly error-prone TP-DNAP1s obtained from later rounds of screening, fewer replicates (3-16) were used, which is sufficient for similar precision (Foster et al., 2006). Second, p1 copy number was determined by the flow cytometry method, described below. Third, cell titers were measured for each fluctuation test to estimate the average number of cells per culture. Cell resuspensions were diluted and plated on solid SC-UH medium, and colony counts were determined after incubation at 30° C. for 2-3 days. Alternatively, cell resuspensions were diluted and subject to an event-count measurement via flow cytometry. Fourth, inoculums of highly error-prone TP-DNAP 1 s occasionally contained pre-existing mutants, despite the 1:10,000 dilution, so mutant frequencies were estimated by plating pre-cultures on solid SC-UHLW, pH 5.8 medium. Plates were incubated for 2-3 days, in parallel with cultures grown for fluctuation tests. Pre-culture mutant titers were counted to estimate the number of replicates in the fluctuation test expected to contain pre-existing mutants (n). Revertants were counted from all replicates of the fluctuation tests, counts were sorted, and n replicates with the highest counts were omitted from calculations.
To calculate per-base substitution rates, fluctuation data were analyzed by the maximum likelihood method, implemented using newton.LD.plating in rSalvador 1.7 (Zheng, 2017). Phenotypic mutation rates were calculated by normalizing to the average number of cells per culture. Phenotypic mutation rates were divided by the measured p1 copy number and by the number of ways leu2 (Q180*) can revert to LEU2 (2.33 for the ochre codon) to yield per-base substitution rates. 95% confidence intervals were similarly scaled by these factors. All data related to large-scale p1 fluctuation tests are fully described in Table 2.

Row | Molecule | Mutation rate (s.p.b.)
1 | B1 | 9.59 × 10^−8 s.p.b.
2 | B2 | 4.73 × 10^−8 s.p.b.
3 | B3 | 2.53 × 10^−8 s.p.b.
4 | B4 | 2.46 × 10^−8 s.p.b.
5 | B5 | 3.59 × 10^−8 s.p.b.
6 | B6 | 7.29 × 10^−8 s.p.b.
7 | B7 | 2.57 × 10^−7 s.p.b.
8 | B8 | 1.34 × 10^−10 s.p.b.
9 | B9 | 1.36 × 10^−7 s.p.b.
10 | B10 | 1.07 × 10^−7 s.p.b.
11 | B11 | 1.86 × 10^−7 s.p.b.
12 | B12 | 2.02 × 10^−7 s.p.b.
13 | B13 | 1.35 × 10^−6 s.p.b.
14 | B14 | 2.59 × 10^−8 s.p.b.
15 | B15 | 2.22 × 10^−7 s.p.b.
16 | B16 | 2.71 × 10^−7 s.p.b.
17 | B17 | 6.67 × 10^−7 s.p.b.
18 | B18 | 3.19 × 10^−7 s.p.b.
19 | B19 | 2.85 × 10^−9 s.p.b.
20 | B20 | 3.13 × 10^−10 s.p.b.
21 | B21 | 1.64 × 10^−7 s.p.b.
22 | B22 | 1.10 × 10^−7 s.p.b.
23 | B23 | 1.14 × 10^−7 s.p.b.
